{"source": "the DeepSol protein solubility set", "data": [{"test": "soluble on expression in E. coli; label from the status in PepcDB or PDB records", "values": [{"sequence": "SSPTMTSSLRLRTLILGKQRWIKPRNFYQFCDKYAIGYENKKNNSLRNHKILRFNDGSVANYRIYEFEIYNFNSDSWKVFDFTPDWDISFTDLSVSLKGYTYWLIRSNGLIQEYYARSLRKMMIKNY", "soluble on expression in E. coli": "soluble"}, {"sequence": "SSRFSITYKHDFYGGVEGEVTGGSALLCCPQEDIKSFLSEPVYSRLCASAWALTIECPSDPRTPSGTPGPLGTVPWRWGSLGMGGPLLPTAPTPRERERRGGQPAQRWSAEEGQEGSADGEAEATQELILAVVQEGAEGQCQGQGRKLLLQRGAHDPVTVHRAFKKEVGLGQVQLIPKGGTGVLHPGAGLKLHTHLQLVTGFVVIRRMHACLAQRYCSQPVVQCVFPS", "soluble on expression in E. coli": "soluble"}, {"sequence": "STMPLAELGARLYREKACFSCHSIDGSRLVGPSFKGLYGSTRTFEDGTTAVADENYLRESILQPGAKVVQGYPNVMPASYASLSEREVAALIEFIKQQQ", "soluble on expression in E. coli": "soluble"}, {"sequence": "STQDADRTLKRLQLQMDNLESRVALECKEAFAELQTDINELTNHMDGVQIPFLDYRTYAVRVLFPGIEAHPVLKELDTPPNVEKALRLFGQLLHSRAFLLTFIHTLEAQSSFSMRDRGTVASLTMVALQSRLDYATGLLKQLLADLIEKNLESKNHPKLLLRRTESVAEKMLTNWFTFLLHKFLKECAGEPLFLLYCAIKQQMEKGPIDAITGEARYSLSEDKLIRQQIDYKTLTLHCVCPESEGSAQVPVKVLNCDSITQAKDKLLDTVYKGIPYSQRPKAEDMDLEWRQGRMARIILQDEDITTKIECDWKRVNSLAHYQVTDGSLVALVPKQVSAYNMANSFTFTRSLSRYESLLRAASSPDSLRSRAPMLTPDQEAGTKLWHLVRNHDHTDHREGDRGSKMVSEIYLTRLLATKGTLQKFVDDLFETVFSTAHRGSALPLAIKYMFDFLDEQADQRQISDPDVRHTWKSNCLPLRFWVNVIKNPQFVFDIHKNSITDACLSVVAQTFMDSCSTSEHRLGKDSPSNKLLYAKDIPNYKSWVERYYRDIAKMASISDQDMDAYLVEQSRLHANDFNVLSALSELYFYVTKYRQEILTSLDRDASCRKHKLRQKLEQIITLVSSSS", "soluble on expression in E. coli": "soluble"}, {"sequence": "SWVWNQMFVLEEFSGPEPILVGRLHTDLDPGSKKIKYILSGDGAGTIFQINDITGDIHAIKRLDREEKAEYTLTAQAVDFETNKPLEPPSEFIIKVQDINDNAPEFLNGPYHATVPEMSILGTSVTNVTATDADDPVYGNSAKLVYSILEGQPYFSIEPETAIIKTALPNMDREAKEEYLVVIQAKDMGGHSGGLSGTTTLTVTLTDVNDNPPKFAQSLYHFSVPEDVVLGTAIGRVKANDQDIGENAQSSYDIIDGDGTALFEITSDAQAQDGVIRLRKPLDFETKKSYTLKVEAANIHIDPRFSSRGPFKDTATVKIVVE", "soluble on expression in E. coli": "soluble"}, {"sequence": "SYDSPDYTDESCTFKISLRNFRSILSWELKNHSIVPTHYTLLYTIMSKPEDLKVVKNCANTTRSFCDLTDEWRSTHEAYVTVLEGFSGNTTLFSCSHNFWLAIDMSFEPPEFEIVGFTNHINVMVKFPSIVEEELQFDLSLVIEEQSEGIVKKHKPEIKGNMSGNFTYIIDKLIPNTNYCVSVYLEHSDEQAVIKSPLKCTLLPPGQESEFS", "soluble on expression in E. coli": "soluble"}, {"sequence": "TDINSLRTRLRSGEHAFADTLAFIADGYDYQPQPFRNGDVDNAAGQNEGSCKTLGLALLEGLSDEEALLAFGEHYRSVQATPEGSDHGNIRALIKHGLAGVTFEGEPLKRK", "soluble on expression in E. coli": "not soluble"}, {"sequence": "TEAAAQPHALPADAPDIAPERDLLSKFDGLIAERQKLLDSGVTDPFAIVMEQVKSPTEAVIRGKDTILLGTYNYMGMTFDPDVIAAGKEALEKFGSGTCGSRMLNGTFHDHMEVEQALRDFYGTTGAIVFSTGYMANLGIISTLAGKGEYVILDADSHASIYDGCQQGNAEIVRFRHNSVEDLDKRLGRLPKEPAKLVVLEGVYSMLGDIAPLKEMVAVAKKHGAMVLVDEAHSMGFFGPNGRGVYEAQGLEGQIDFVVGTFSKSVGTVGGFVVSNHPKFEAVRLACRPYIFTASLPPSVVATATTSIRKLMTAHEKRERLWSNARALHGGLKAMGFRLGTETCDSAIVAVMLEDQEQAAMMWQALLDGGLYVNMARPPATPAGTFLLRCSICAEHTPAQIQTVLGMFQAAGRAVGVIGLEHHHHHH", "soluble on expression in E. coli": "soluble"}, {"sequence": "TEEDPSSGHGGVALESLSSFLAHSRRAGIYRLHLPDSVLSHFVRAALDYRERQVPFDFAFDSASDAELYCTELVAAALLRADSLLPIRPSISVAGRRVYSLDDLLLLPGTKCMALAN", "soluble on expression in E. coli": "not soluble"}, {"sequence": "TITEWSVNMYNHLRGTGEDENILFSPLSIALAMGMMELGA", "soluble on expression in E. coli": "soluble"}, {"sequence": "TKDFSWNTDFTFSFYRDKWKERDENWSPNPYDMYNAPLRGYYMYLSDGLIQPGEEVSWMPGALPGQVKLKDIDGYAYNED", "soluble on expression in E. coli": "not soluble"}, {"sequence": "TKDFTWTTDFNIAFNNNKITSYPQKEEVVGTKIRTVGYSIYEFYMQEWAGVDPVNGDPLWYMDVTDDKGNPTGERTTTNTYSKATKYKLGSALPSATGGLTNTVSWKGVDFSFMFTYGFGGKIYDVYEENLLNDGNKTGYQLITEQADSWTPENTNASNPKFIPNNSNTSNGRSSRYLHNADFIKLKNISLGYSLPKSLIKKNLLQNVRIYVSADNLITWNLDKKFKSYDVELGGVDGLLDGGGTVPLARTFTAGINLTF", "soluble on expression in E. coli": "not soluble"}, {"sequence": "TKEGQIKGKLLLPGGVKTCPVVLIIAGSGPTDMDGNSAIGNLRNNSLKFLAEGLAANGIASLRFDKRGIGTSASAGKEEAKLRFEDYVNDVTGWIDYLAKEKRFTTITVAGHSEGALIGMLACQNRPKVKGYISVAGAGRPAYEIIEAQVAAQQNPEAVRKEVASINGSLKNGKEVSDVPAYLQSLYRASVQPYLISWFKYNPRTVIASVKVPVLIVQGKNDIQVSVEDAELLKKGCPAAELLLIDKMNHVLKDCESKAVQQQMLTYGNPSLPVNSTLIASVSTFVKKLK", "soluble on expression in E. coli": "soluble"}, {"sequence": "TLTTPPLELSDAIEYILMPLKAVHFPVYEVALMLSIALRFVPTLMDETEKIMNAQRARGVDFGEGNIFQQMRAVVPLLIPLFVSSFNRAEDLATAMEARGYQGGEGRSKYRILKWHQRDTWATGCFAILTVALIFLRA", "soluble on expression in E. coli": "not soluble"}, {"sequence": "TNGFLKILGLGSGHDDKDKLSSEELRTVVHEAGGLIPRRHQDMLISILDLEHVTVNDIMVPRSEITGIDINDDWKSISRQLTHSPHGRIVLYRDQIDEVVGMLRLRESYRLMLEKNEFTKETLLRAADEIYFIPEATPLNSQLLKFQRNKERIGLVVDEYGDIQGLITLEDILEEIVGEFT", "soluble on expression in E. coli": "not soluble"}, {"sequence": "TPNEMGYLHVIENLTKKRMTPLRPPTEKEAFKGQLSAAVETIESDLEENGLDKYLESAEALLEKYSATDLAALLLKTVAKDPADAVPVKITPERPLPSNKKGFNKNGR", "soluble on expression in E. coli": "not soluble"}, {"sequence": "TPRGYTTWVNTIQTNGLLNEASQNLFGILSVDCTSEEMNAFLDVVPGQAGQKQILLDAIDKIADDWDNRHPLPNAPLVAPPQGPIPMTARFIRGLGVPRERQMEPAFDQFRQTYRQWIIEAMSEGIKVMIGKPKAQNIRQGAKEPYPEFVDRLLSQIKSEGHPQEISKFLTDTLTIQNANEECRNAMRHLRPEDTLEEKMYACRDIG", "soluble on expression in E. coli": "soluble"}, {"sequence": "TPTDKHGGSDTRCPLMVKILDAVKGTPAGSVALKVSQKTADGGWTQIATGVTDATGEIHNLITEQQFPAGVYRVEFDTKAYWTNQGSTPFHEVAEVVFDAHPEGHRHYTLALLLSPFSYTTTAVVSSVHE", "soluble on expression in E. coli": "soluble"}, {"sequence": "TQDMELNINANITFQQNKLLSLSGMYNGELISAPEYKSLASLDGAGFHGGYNHIVYQVVGQPLGVFYLPRANGLVSDGNGGYTYDIADLNGGGVSLEDGEDRYVAGQAVPKTILGSNLSFRYKRFDISVQINGAFGHKIYNGTSLTYMNMNIFPDYNVMQEAPARNIKDQTATDYWLENGAYVNFDYVTLGWNVPIEKVQKLKKYVRSLRLAFTVNNLATISGYSGLSPMINSSTVNSTLGLDDKRGYPLARTYTLGLSINF", "soluble on expression in E. coli": "not soluble"}, {"sequence": "TRSVKSCVGKEFCRFGTQYTTRLGIRLEKTFEYIDTPHKFKMGVSGCPRSCVESGVKDFGIISVENGFQIYIGGNGGTEVEKAEFLTTVETEDEVIKLCGALMQYYRETGIYAERTAPWLRRLGFENVKEVLLD", "soluble on expression in E. coli": "not soluble"}, {"sequence": "TVAYIAIGSNLASPLEQVNAALKALGDIPESHILTVSSFYRTPPLGPQDQPDYLNAAVALETSLAPEELLNHTQRIELQQGRVRKAERWGPRTLDLDIMLFGNEVINTERLTVPHYDMKNRGFMLWPLFEIAPELVFPDGEMLRQILHTRAFDKLNKW", "soluble on expression in E. coli": "soluble"}, {"sequence": "TVQTQDKVTAMDKDPKVTVDVTGYQWNWKFGYAKVAGELSPTGSDYVGTDEKRQEAAEKTKFDQGGDNPNPINGRSKTDTSYLHFNKIETLGTSEEIPV", "soluble on expression in E. coli": "not soluble"}, {"sequence": "VADSASTVTNEFSADHPFIYVIRHVDGKILFVGRYSSPTTN", "soluble on expression in E. coli": "soluble"}, {"sequence": "VCEKGFEAGDNKLGGALNAKHVEKYGDNFKNGMHKPEFHEDGLHKPMEVGGKKFESGFHYLLECHELGGKNASGGYGGPLCEDPYGSEVQAMTEKLLKEADSDRTLCFNNFQDPCPQLTKEQVAMCKGFDYGDKTLKLPCGPLPWPAGLPEPGYVPKTNPLHGRWITVSGGQAAFIKEAIKSGMLGAAEANKIVADTDHHQTGGMYLRINQFGDVCTVDASVAKFARAKRTWKSGHYFYEPLVSGGNLLGVWVLPEEYRKIGFFWEMESGRCFRIERRAFPVGPYTFMRQATEVGGKISFVFYVKVSNDPESDPIPLQSRDYTALAGRDNAPTNLGKPYPTLAKDLDYPKKRDGWLEKNEKEMLRQRNIVSSTF", "soluble on expression in E. coli": "soluble"}, {"sequence": "VDQFISPEQLQGVIYTDGELQADEMTLEIAELLQSAGPWGQHFPEPLFEGQCRILQQRILAGKHLKLMIQFNDRFELYDAIWFNVDLRTFPDLSIKHAQIVYKLDINEFRGNKNIQLRVESLIPL", "soluble on expression in E. coli": "not soluble"}, {"sequence": "VEQIMIQGTASDAGKSVIVAGLCRLFKNKGKRVVPFKSQNMSLNSFITATGDEMGRAQVFQAEAAGVFPDVRMNPVLLKPTNDRQSQVIFMGAILDNMDAVSYHDFKQTLIPKIQAVYQSLADENDIIVLEGAGSPAEINLNDRDIVNMGMAKMVDAPVVLVADIDKGGVFASIYGTIMLLKEEERARLKGVIINKFRGDVALLQPGIEMIEELTNVPVIGVIPYANLQL", "soluble on expression in E. coli": "not soluble"}, {"sequence": "VFDWDGTLVDSIARIVDSMKAAARETALPERGDTRIKGIIGLGLPEAIASLYPEVGDPALVERFRCAYSEHYLAQEAQPSRLFPGVAEAMVHFREAGFRLAVATGKSRRGLDRVLAGHGWSDFFDITRCADETASKPDPLMLHEILAHCRVEPGRALMIGDSPFDLEMARRAGMDSVAVAYGAQSLEQLRPYAPRLEVEHFTELRAWLGGARREAVS", "soluble on expression in E. coli": "not soluble"}, {"sequence": "VFHPVECSYCHSESMMGFRYRCQQCHNYQLCQDCFWRGHAGGSHSNQHQMKEYTSW", "soluble on expression in E. coli": "soluble"}, {"sequence": "VGKEKAEVELLQVDADLQAEIVGKYNADLQKAVQIEEKKAREIATEAVKEHVTAEYEERYAEHEEHDRIMRDVAEILEQMEHAEVRRLITEDKVRPDGRRVDEIRP", "soluble on expression in E. coli": "not soluble"}, {"sequence": "VHPLPADHGRSRCNRHPISPLSLIGNASATSGDMSSMTRIAKPLIKSAMAAGLVTASMSLSTAVAHAGPSPNWDAVAQCESGGNWAANTGNGKYGGLQFKPATWAAFGGVGNPAAASREQQIAVANRVLAEQGLDAWPTCGAASGLPIALWSKPAQGIKQIINEIIWAGIQASIPR", "soluble on expression in E. coli": "not soluble"}]}]}
